This experiment concerns the target H1 SI-06 HA FLsE (Influenza A virus A/Solomon …, UniProt A7UPX0, strain). Description: ELISA. In general terms: In an ELISA, binding on a coated surface is turned into a signal by an enzyme label.

B1: K03.12 IgG (antibody, V domains shown)
VH: QVQLVQSGAEVKKPGASVKVSCKTSGYTFTAYYLHWVRQAPGQGFEWMAWINPNTGDTNYAQKFQGRVTLSRDTSITTAYMELTRLRSDDTAVYYCAKDLTLMYVFDSGWARGAHDYYGMDVWGQGTTVAVSG
VL: PSALTQPASVSGSPGQSVTISCTGTNSDVGTFDLVSWYQQYPGKAPKLIIYEGSRRPSGVSDRFSGSKSGNTASLTISGLQAEDEADYYCSSYAGSVVFGGGTKLTVL
For the molecule B1, the binding result is “binds”.

Values taken from publication PMC7291361 (ACS infectious diseases, 2020).
